Data taken from article PMC8632972.

Key:
SEC24A tagged with Myc = assay: PLA; conditions: n = 3 independent experiments, n = 8 independent images quantified; parent: est. 4.5; read off a plot
SCG5 tagged with cYFP [1] = biological target: SCG5 tagged with cYFP (UniProt P27682); assay: PLA; conditions: n = 4 independent experiments, n = 8 independent images quantified; parent: est. 100; read off a plot
SCG5 tagged with cYFP [2] = biological target: SCG5 tagged with cYFP (UniProt P27682); assay: BiFC quantified by flow cytometry; conditions: n = 5 independent experiments; parent: est. 100; read off a plot
[3] = biological target: proinsulin tagged with C-terminal segment of YFP (cYFP) (UniProt P01322); assay: BiFC quantified by flow cytometry; conditions: n = 5 independent experiments; parent: est. 100; read off a plot
Sequence of UniProt P01322 (P01322 25-110): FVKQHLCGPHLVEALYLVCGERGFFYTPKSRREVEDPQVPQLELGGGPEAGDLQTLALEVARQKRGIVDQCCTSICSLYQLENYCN

NPY tagged with cYFP = NPY tagged with cYFP (UniProt P07808); assay: BiFC quantified by flow cytometry; conditions: n = 5 independent experiments; parent: est. 100; read off a plot
CPE tagged with cYFP = CPE tagged with cYFP (UniProt P15087); assay: BiFC quantified by flow cytometry; conditions: n = 5 independent experiments; parent: est. 100; read off a plot
Sequence of UniProt P15087 (P15087 28-476): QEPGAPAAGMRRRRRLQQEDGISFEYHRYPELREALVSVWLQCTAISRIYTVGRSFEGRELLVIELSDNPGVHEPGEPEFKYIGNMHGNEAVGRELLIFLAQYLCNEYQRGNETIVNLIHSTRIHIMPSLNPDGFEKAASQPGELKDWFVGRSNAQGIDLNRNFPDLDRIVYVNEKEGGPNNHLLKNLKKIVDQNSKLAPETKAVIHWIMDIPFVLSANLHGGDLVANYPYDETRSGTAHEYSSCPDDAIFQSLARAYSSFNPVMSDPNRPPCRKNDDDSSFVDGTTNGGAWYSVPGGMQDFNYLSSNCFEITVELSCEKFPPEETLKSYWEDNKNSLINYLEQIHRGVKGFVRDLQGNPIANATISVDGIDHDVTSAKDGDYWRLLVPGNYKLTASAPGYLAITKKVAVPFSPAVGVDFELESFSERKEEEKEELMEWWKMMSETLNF

Sequence of UniProt P27682 (P27682 25-210): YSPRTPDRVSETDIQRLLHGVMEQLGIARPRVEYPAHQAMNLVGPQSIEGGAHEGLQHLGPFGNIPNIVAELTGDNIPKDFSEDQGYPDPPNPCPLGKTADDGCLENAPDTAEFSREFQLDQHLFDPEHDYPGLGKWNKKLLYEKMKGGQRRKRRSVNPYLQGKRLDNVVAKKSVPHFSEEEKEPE

Row | response (puncta (>1µm2) per cell) (SEC24A tagged with Myc) | response (puncta (>1µm2) per cell) (SCG5 tagged with cYFP [1]) | percent of parent (SCG5 tagged with cYFP [2]) | percent of parent [3] | percent of parent (NPY tagged with cYFP) | percent of parent (CPE tagged with cYFP) | Substance
1 | 0.13 |  |  |  |  |  | HA-tagged WFS1 E158K
2 | 0.13 |  |  |  |  |  | HA-tagged WFS1 E169K
3 |  | 56 |  |  |  |  | HA-tagged WFS1 E809K
4 |  | 7 |  |  |  |  | HA-tagged WFS1 E830A
5 |  | 35 |  |  |  |  | HA-tagged WFS1 G695V
6 |  | 55 |  |  |  |  | HA-tagged WFS1 P724L
7 |  |  | 71% | 70% | 41% | 46% | WFS1 tagged with N-terminal segment of YFP (nYFP) E809K
8 |  |  | 8% | 23% | 3% | 2% | WFS1 tagged with N-terminal segment of YFP (nYFP) E830A
9 |  |  | 56% | 42% | 33% | 41% | WFS1 tagged with N-terminal segment of YFP (nYFP) G695V
10 |  |  | 54% | 61% | 49% | 71% | WFS1 tagged with N-terminal segment of YFP (nYFP) P724L
